The subject of assay [1] is ventral mesencephalic Nurr1+ neuronal precursors. In words: Conversion of VM Nurr1+ precursors into Nurr1+/TH+ dopaminergic neurons (double immunostaining). Particulars: VM cultures; control approximately 50%. In kind it is cell-based, rat. On the procedure:
(§1) Ventral mesencephala and cerebral cortices from embryos E13.5-14.5 obtained from timed-mated Sprague-Dawley rats were dissected, mechanically dissociated and plated at a final density of 1×10^5 cells/cm2 on poly-D-lysine coated 12- or 24-well plates in a defined, serum-free medium (N2, consisting of a 1:1 mixture of F12 and DMEM containing insulin (10 ng/ml), transferrin (100 μg/ml), putrescine (100 μM), progesterone (20 nM), selenium (30 nM), glucose (6 mg/ml), and bovine serum albumin (1 mg/ml)). Purified Type 1 astrocytes were obtained from mixed glial cultures derived from the VM or CTX of P1 rats according to a standard protocol (Wagner et al., 1999). After shaking and replating into 12-well plates, astrocytes were grown to confluency in 15% fetal bovine serum-containing media and changed to N2 medium, at which time freshly dissected VM or CTX cells were plated on top of the astrocytes at a density of 1×10^5 cells/cm2. All factors were added once, at the initiation of culture, with the exception of 5-bromodeoxyuridine (BrdU), which was added 4-6 hours prior to fixation. Cultures were maintained in a humidified 5% CO2, 95% air incubator at 37° C. and fixed after given time periods with 4% paraformaldehyde for 45 minutes prior to immunocytochemical analysis.
B1A fibroblast lines were cotransfected with the mFz8CRD-IgG/pRK5 and the pIRES puro 2 (Clontech, BD Bioscience, Erembodegem, Belgium) plasmids, using Lipofectamine Plus reagent (Invitrogen, Lidingo, Sweden) according to the instruction of the manufacturer. Upon selection for puromycin resistance (1 μg/ml Sigma, Stockholm, Sweden), clones were isolated and expanded. A clone overexpressing Fz8CRD 700× (real time RT-PCR analysis) was identified. Harvesting and partial purification of Fz8CRD conditioned media were performed as described previously. In all the blocking experiments performed, the Fz8CRD and B1A control partial purified conditioned medias were used at a final concentration of 125-250 μg/ml. […]
Only clearly stained cells were counted as positive cells. […]

Assay [2] relates to VM cultures. In words: TuJ1+ neurons and proliferating clusters, proportion dopaminergic, in VM cultures. The class given is cell-based, rat. The conditions noted are these: for total number of TuJ1+ neurons: FIG. 3f. On the procedure:
as §1
Fixed cultures were incubated with one of the following antibodies, diluted appropriately in phosphate-buffered saline (PBS) containing 1% bovine serum albumin and 0.3% Triton-X 100: mouse anti-BrdU, 1:50 (DAKO, Denmark), mouse anti-β-tubulin, Type III (TuJ1), 1:250 (Sigma), mouse anti-TH, 1:1000 (Incstar, USA), rabbit anti-TH, 1:250 (PelFreeze); rabbit anti-Nurr1, 1:2000 (gift from Dr. T. Perlmann, Sweden), rabbit anti-Nurr1, 1:1000 (Santa Cruz, USA) or mouse anti-Nurr1, 1:250 (BD Transduction Laboratories, USA), rabbit anti Adh2 1:4000 (gift from Dr. R. Lindahl, South Carolina). Incubations were either carried out at 4° C. overnight, or at room temperature for 1 hour. Both processes yielded similar results. After washing, cultures were incubated for 1-3 hr with appropriate secondary antibodies (biotinylated 1:500; CY2-, FITC-, or rhodamine-coupled horse-anti-mouse IgG 1:100; or goat-anti-rabbit IgG 1:100; all from Vector, USA), in the same dilution buffer. Brightfield immunostaining was visualized with the Vector Laboratory ABC immunoperoxidase kit, using either NovaRed (red), or AEC (red), SG or 3-3′ dimaminobenzidine tetrahydrochloride (DAB 0.5 mg/ml)/nickel chloride (1.6 mg/ml) (gray/black), or VIP (violet) substrates. Double-staining was performed by sequential single staining as described. The order of staining was only critical for BrdU-double labeling, in which case the BrdU procedure was always performed second. […] Photos were acquired with a Zeiss Axioplan 100M microscope and collected with a Hamamatsu camera C4742-95 (with the QED imaging software).
Only clearly stained cells were counted as positive cells. Spheres were considered positive if they contained one or more positive cell. Quantitative immunocytochemical data on individual cells represent means and standard errors of counts obtained by a blinded observer from 10-20 non-overlapping fields (cells) or in the entire well (clusters), in each of 3-4 wells per condition from 3-4 independent experiments, unless stated otherwise. For each variable, initial statistical comparisons were performed by a global ANOVA, with multiple factors of dose, time point, treatment and/or region; if significant interactions between treatment and any other variable existed, data were further divided into separate times, doses or regions. Fisher's protected least significant difference was used post hoc to identify specific points at which the treatments differed from controls (or each other) only when significant interactions between factor treatment and other variables occurred. Significance for all tests was assumed at the level of p<0.05. […]

B1: Wnt-1: Partially purified conditioned media from stable fibroblast cell line engineered to secrete Wnt-1 ligand (protein)
chain: ANSSGRWWGIVNIASSTNLLTDSKSLQLVLEPSLQLLSRKQRRLIRQNPGILHSVSGGLQSAVRECKWQFRNRRWNCPTAPGPHLFGKIVNRGCRETAFIFAITSAGVTHSVARSCSEGSIESCTCDYRRRGPGGPDWHWGGCSDNIDFGRLFGREFVDSGEKGRDLRFLMNLHNNEAGRTTVFSEMRQECKCHGMSGSCTVRTCWMRLPTLRAVGDVLRDRFDGASRVLYGNRGSNRASRAELLRLEPEDPAHKPPSPHDLVYFEKSPNFCTYSGRLGTAGTAGRACNSSSPALDGCELLCCGRGHRTRTQRVTERCNCTFHWCCHVSCRNCTHTRVLHECL
modifications: left off: small tags and cut ends
With B1, in assay [1], the “proportion of Nurr1 positive cells that expressed TH (Nurr1+/TH+)” value was 70%. In assay [2] (FIG. 3e), the “proportion of VM clusters containing dopaminergic neurons” value is recorded as “about 30%”. In assay [2], the “total number of TuJ1+ neurons” value is reported as “increased”. Also, the “proportion of TH+ (dopaminergic) neurons” value in assay [2] (FIG. 3g) is “did not increase”.

B2: Wnt-5a: Partially purified conditioned media from stable fibroblast cell line engineered to secrete Wnt-5a ligand (protein)
chain: IIGAQPLCSQLAGLSQGQKKLCHLYQDHMQYIGEGAKTGIKECQYQFRHRRWNCSTVDNTSVFGRVMQIGSRETAFTYAVSAAGVVNAMSRACREGELSTCGCSRAARPKDLPRDWLWGGCGDNIDYGYRFAKEFVDARERERIHAKGSYESARILMNLHNNEAGRRTVYNLADVACKCHGVSGSCSLKTCWLQLADFRKVGDALKEKYDSAAAMRLNSRGKLVQVNSRFNSPTTQDLVYIDPSPDYCVRNESTGSLGTQGRLCNKTSEGMDGCELMCCGRGYDQFKTVQTERCHCKFHWCCYVKCKKCTEIVDQFVCK
modifications: left off: small tags and cut ends
Consider B2, for which the “proportion of Nurr1 positive cells that expressed TH (Nurr1+/TH+)” value in assay [1] is 90%. The “enrichment for dopaminergic clusters” value in assay [2] (FIG. 3e) was “more than two”. The “total number of TuJ1+ neurons” value in assay [2] is given as “did not increase”. Besides, in assay [2] (FIG. 3g), the “enrichment for dopaminergic neurons” value is listed as “more than two”. Besides, the “increase in number of proliferating clusters containing TuJ1+ cells” value in assay [2] (compared to control (FIG. 3d)) is recorded as “did not increase”.

(Values after patent publication US20090087417A1, “METHODS FOR PROMOTING DOPAMINERGIC NEURONAL DEVELOPMENT BY USING NG4A-SUBFAMILY AND WNT-LIGANDS” (priority 2002, published 2009).)
